Test results taken from patent US7067474B1, “Agents for treating human illnesses based on β-catenin, and the production and use thereof” (Max-Delbruck-Centrum fur Molekulare Medizin, priority 1998, dated 2006).
Where a name gives a salt, the structure may show the parent alone. Where no end group is shown, it is not given here.

target: T1, LEF-1/β-catenin interaction (Homo sapiens, UniProt P35222); experiment: ELISA: inhibition of complex formation of LEF-1 and β-catenin; format: binding; conditions: recombinant purified proteins, 15–250 μM, FIG. 9, read-out: IC50, reduction of the complex formation of LEF-1 and β-catenin
T1 construct: made in house; host or cells: bacteria
T1 sequence (P35222 1-781): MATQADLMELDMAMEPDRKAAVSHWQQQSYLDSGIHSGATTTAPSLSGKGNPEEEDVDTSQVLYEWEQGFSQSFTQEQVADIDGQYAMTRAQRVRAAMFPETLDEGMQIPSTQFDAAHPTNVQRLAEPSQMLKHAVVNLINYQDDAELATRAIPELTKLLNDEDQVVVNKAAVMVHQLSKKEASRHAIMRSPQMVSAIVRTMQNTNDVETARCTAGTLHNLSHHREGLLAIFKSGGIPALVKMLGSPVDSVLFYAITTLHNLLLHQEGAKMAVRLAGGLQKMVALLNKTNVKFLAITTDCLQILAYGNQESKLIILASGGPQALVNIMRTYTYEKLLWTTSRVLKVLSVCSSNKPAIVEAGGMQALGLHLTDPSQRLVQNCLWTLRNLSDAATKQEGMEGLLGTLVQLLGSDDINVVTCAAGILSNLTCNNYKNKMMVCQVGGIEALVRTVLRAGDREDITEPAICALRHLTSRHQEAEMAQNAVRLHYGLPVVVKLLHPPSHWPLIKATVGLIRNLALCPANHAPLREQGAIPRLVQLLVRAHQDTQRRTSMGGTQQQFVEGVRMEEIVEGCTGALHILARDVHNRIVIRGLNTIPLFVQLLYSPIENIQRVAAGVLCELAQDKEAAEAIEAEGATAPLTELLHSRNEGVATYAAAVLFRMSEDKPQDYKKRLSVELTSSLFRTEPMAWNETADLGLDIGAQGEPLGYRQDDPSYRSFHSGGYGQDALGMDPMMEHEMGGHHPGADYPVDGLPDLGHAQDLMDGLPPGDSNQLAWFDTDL
Text: Both proteins were produced in bacteria recombinantly with N-terminal histidine sequences, purified by means of nickel chromatography for quantifying the inhibition of the LEF-1/β-catenin interaction by synthetic peptides and (Behrens et al. 1996). The peptides were produced by the company Biosyntan with the aid of a PSSM-8 automaton (Shimadzu, Japan) applying the Fmoc/But strategy (E. Atherton and R. C. Sheppard. 1989 IRL Press. Oxford: “Solid phase peptide synthesis—a practical approach”). Approx. 50 ng of LFF-1 were absorbed in the wells of ELISA plates for 90 minutes at room temperature. Subsequently, the wells were covered with 5% dry milk powder in PBS for 16 hours at 4° C. All further steps were carried out at room temperature in PBS with 50 mM Tris HCl (pH 7.5). After washing the wells with PBS the peptide dilutions were added. The incubation with 50–100 ng of β-catenin was carried out for 10 minutes in the presence of […] BSA. The complex formation of LEF-1 and β-catenin was detected by the antibody PA2 against the carboxy terminal area of β-catenin (Huelsken et al. 1994). PA2 was added in a standard dilution of 1:5000 in 3% of dry milk powder in PBS for 10 minutes. After washing the wells with PBS a quantification was carried out by detection antibodies conjugated by peroxidase (1: 2500 in 3% of dry milk powder in PBS, Dianova) and the conversion of o-phenylenediamine was determined by photometric measurement at […]. The peptides were used in concentrations of 100 μM to 0.3 μM. To check the specificity of the inhibition of the LEF-1/β-catenin interaction β-catenin was absorbed in the wells and detected by means of the same antibodies in the presence and absence of the peptides (FIGS. 2 and 3).
For a mutation analysis of the peptides the indicated amino acids were substituted by alanine during the synthesis. The inhibition of the complex formation of β-catenin and LEF-1 was quantified as has been already described (FIG. 2).

| Compound | IC50 [µM] |
| --- | --- |
| Cn1nnnc1SCC1=C(C(=O)O)N2C(=O)C(NC(=O)[C@@H](O)c3ccccc3)C2SC1 (stereo partly drawn) [cefamandole, CEFAMANDOLESODIUM SALT, reference compound] | 25 |

same assay, conditions: synthetic peptides, 100 μM to 0.3 μM

| Compound | inhibition of the interaction between LEF-1 and β-catenin (complex formation) |
| --- | --- |
| Asp15: synthetic hTCF-4 N-terminal peptide with Asp15 substituted by alanine (GGDDLGANAELISFKDEGEQEEK) | stopping the inhibition |
| GDPELCATDEMIPFKDEGDPQKEK [11–34] | inhibit specifically |
| Phe20: synthetic hTCF-4 N-terminal peptide with Phe20 substituted (GGDDLGANDELISAKDEGEQEEK) | has the same effect |
| Lys21: synthetic hTCF-4 N-terminal peptide with Lys21 substituted (GGDDLGANDELISFADEGEQEEK) | has the same effect |
| Asp22: synthetic hTCF-4 N-terminal peptide with Asp22 substituted by alanine (GGDDLGANDELISFKAEGEQEEK) | stopping the inhibition |
| Asp10: synthetic hTCF-4 N-terminal peptide with Asp10 substituted by alanine (GGDALGANDELISFKDEGEQEEK) | stopping the inhibition |
| Ile35–Val56: peptide of LEF-1 with the amino acids Ile35–Val56 (IFAEISHPEEEGDLADIKSSLV) | does not inhibit complex formation |
| ELCATDEMIPFKDE [14–27] | inhibit specifically |
